Test results: article PMC6572788

B1: nanobody T2a (VHH)
VHH: QVQLQESGGGLVQAGGSLRLSCAASGSIFRIDAMGWYRQAPGKQRELVAHSTSGGSTDYADSVKGRFTISRDNAKNTVYLQMNSLKPEDTAVYYCNADVRTRWYASNNYWGQGTQVTVSS
B2: nanobody T27 (VHH)
VHH: QVQLQESGGGLEQPGGSLRLSCATSGVIFGINAMGWYRQAPGKQRELVATFTSGGSTNYADFVEGRFTISRDNAKNTVYLQMNGLRPEDTAVYYCHATVVVSRYGLTYDYWGQGTQVTVSS
B3: nanobody T4 (VHH)
VHH: QVQLQESGGGLVQAGGSLRLSCAASGSTFAIIAMGWYRQAPGKQRELVAVISTGDTRYADSVKGRFTISRDNAKNTVYLQMDSLRPEDTAVYYCNAAVQVRDYRNYWGQGTQVTVSS
B4: nanobody D12 (VHH)
VHH: QVQLQESGGGLVQAGSSLRLACAATGSIRSINNMGWYRQAPGKQRGMVAIITRVGNTDYADSVKGRFTISRDNAKNTVYLQMNSLKPEDTATYYCHAEITEQSRPFYLTDDYWGQGTQVTVSS
B5: nanobody G3a (VHH)
VHH: QVQLQESGGGLVQAGGSLRLSCTASGRAFSWYVMGWFRQAPGKEREFVATVSGNGSRRDYADSVKGRFTISRDNAKNTVYLQMNSLKPEDTAVYYCAASSTYYYTDPEKYDYWGQGTQVTVSS

Columns and labels:
[1] = biological target: wt-CFTR fused to enhanced green fluorescent protein (His10-SUMO*-CFTR^FLAG-EGFP), PKA phosphorylated (human) (UniProt P13569)
[2] = biological target: stabilized version of human CFTR (stab-CFTR: 2PT/ΔRI/R1048A_1172X) (human) (UniProt P13569)
[3] = biological target: wt-CFTR fused to enhanced green fluorescent protein (His10-SUMO*-CFTR^FLAG-EGFP), PKA phosphorylated (human) (UniProt P13569); remark: listed apart in the source

Sequence of wt-CFTR fused to enhanced green fluorescent protein (His10-SUMO*-CFTR^FLAG-EGFP), PKA phosphorylated (human) (P13569 whole entry, the tested form may be a part): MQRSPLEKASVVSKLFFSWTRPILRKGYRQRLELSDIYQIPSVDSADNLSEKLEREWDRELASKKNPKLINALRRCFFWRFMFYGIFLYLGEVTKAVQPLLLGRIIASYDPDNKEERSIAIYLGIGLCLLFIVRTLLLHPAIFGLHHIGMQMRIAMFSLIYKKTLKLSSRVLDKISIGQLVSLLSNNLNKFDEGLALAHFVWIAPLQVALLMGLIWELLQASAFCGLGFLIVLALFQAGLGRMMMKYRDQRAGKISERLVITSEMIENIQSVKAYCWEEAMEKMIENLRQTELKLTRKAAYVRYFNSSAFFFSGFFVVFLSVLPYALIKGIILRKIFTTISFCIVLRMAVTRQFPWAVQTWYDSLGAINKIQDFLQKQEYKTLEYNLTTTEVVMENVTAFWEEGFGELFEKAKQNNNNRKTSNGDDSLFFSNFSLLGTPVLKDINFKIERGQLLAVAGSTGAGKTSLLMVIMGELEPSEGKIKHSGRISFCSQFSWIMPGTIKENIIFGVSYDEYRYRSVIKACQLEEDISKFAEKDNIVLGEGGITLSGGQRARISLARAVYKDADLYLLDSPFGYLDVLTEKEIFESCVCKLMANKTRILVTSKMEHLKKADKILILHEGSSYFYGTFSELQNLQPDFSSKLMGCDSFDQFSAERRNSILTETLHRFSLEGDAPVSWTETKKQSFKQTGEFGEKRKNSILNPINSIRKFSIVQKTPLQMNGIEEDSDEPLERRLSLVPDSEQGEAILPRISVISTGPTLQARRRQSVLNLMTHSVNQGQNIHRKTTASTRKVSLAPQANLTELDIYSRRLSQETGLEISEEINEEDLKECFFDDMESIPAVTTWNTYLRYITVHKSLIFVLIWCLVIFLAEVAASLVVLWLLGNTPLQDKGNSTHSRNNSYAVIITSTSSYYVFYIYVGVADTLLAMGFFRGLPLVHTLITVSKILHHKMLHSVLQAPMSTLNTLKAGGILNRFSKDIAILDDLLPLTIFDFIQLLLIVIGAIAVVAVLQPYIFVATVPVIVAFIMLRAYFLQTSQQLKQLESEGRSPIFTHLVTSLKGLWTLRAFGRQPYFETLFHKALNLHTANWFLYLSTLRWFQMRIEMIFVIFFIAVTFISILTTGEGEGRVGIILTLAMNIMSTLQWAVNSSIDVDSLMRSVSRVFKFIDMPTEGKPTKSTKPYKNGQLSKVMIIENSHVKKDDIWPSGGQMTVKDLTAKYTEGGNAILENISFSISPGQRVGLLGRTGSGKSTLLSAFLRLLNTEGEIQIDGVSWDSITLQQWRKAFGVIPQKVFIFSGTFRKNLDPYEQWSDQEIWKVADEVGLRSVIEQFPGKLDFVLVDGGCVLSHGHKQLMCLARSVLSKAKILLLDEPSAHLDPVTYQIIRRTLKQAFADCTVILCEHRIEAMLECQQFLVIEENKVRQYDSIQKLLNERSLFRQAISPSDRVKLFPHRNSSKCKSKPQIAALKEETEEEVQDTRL
Sequence of stabilized version of human CFTR (stab-CFTR: 2PT/ΔRI/R1048A_1172X) (human) (P13569 other isoform, or with tags, fused parts or gaps, stated change not applied): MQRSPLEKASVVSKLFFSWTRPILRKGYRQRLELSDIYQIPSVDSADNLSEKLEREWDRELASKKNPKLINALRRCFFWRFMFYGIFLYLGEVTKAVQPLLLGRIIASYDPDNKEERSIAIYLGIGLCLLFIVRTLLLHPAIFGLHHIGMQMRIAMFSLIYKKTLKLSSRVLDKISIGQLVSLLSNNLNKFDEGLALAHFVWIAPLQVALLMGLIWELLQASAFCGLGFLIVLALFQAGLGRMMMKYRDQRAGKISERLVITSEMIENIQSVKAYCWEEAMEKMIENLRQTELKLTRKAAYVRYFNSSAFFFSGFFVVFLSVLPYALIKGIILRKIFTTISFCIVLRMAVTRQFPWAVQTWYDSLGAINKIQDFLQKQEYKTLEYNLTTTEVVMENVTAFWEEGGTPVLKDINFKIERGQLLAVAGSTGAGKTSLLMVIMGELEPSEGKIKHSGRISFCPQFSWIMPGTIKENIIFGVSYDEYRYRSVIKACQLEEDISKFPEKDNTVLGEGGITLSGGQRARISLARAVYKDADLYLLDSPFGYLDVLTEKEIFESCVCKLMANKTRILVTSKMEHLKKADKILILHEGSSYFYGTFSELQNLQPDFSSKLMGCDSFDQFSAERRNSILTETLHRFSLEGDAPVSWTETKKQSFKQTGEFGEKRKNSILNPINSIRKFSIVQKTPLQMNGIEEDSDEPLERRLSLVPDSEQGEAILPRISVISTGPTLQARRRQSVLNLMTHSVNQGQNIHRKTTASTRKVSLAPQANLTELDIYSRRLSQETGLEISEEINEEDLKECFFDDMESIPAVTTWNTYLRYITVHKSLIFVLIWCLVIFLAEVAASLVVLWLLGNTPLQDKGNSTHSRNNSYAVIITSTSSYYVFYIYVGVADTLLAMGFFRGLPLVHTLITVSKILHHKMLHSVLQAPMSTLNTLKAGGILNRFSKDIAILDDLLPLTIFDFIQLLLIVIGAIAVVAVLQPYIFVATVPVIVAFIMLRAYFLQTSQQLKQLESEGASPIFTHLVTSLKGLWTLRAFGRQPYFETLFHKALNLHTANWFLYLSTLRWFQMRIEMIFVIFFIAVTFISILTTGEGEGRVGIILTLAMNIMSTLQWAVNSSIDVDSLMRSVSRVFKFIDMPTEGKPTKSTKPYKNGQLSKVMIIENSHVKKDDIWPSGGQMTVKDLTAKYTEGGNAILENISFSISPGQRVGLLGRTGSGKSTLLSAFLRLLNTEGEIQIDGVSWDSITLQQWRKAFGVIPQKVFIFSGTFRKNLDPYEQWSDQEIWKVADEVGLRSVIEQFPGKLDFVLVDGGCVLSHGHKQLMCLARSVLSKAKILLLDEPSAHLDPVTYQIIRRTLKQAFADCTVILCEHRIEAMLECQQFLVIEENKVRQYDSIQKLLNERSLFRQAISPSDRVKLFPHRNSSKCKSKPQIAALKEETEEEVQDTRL

| Binder | ATPase activity of PKA-phosphorylated wt-CFTR (25 nM) with 1 µM nanobody, percent of the activity without nanobody [1] [%] | thermostabilization of stab-CFTR by nanoDSF (~1:2 molar ratio) [2] [°C] | shift of the temperature of thermal inactivation of the ATPase activity of wt-CFTR (30 min heat challenge) [3] [°C] | shift of the temperature of thermal inactivation of the ATPase activity of wt-CFTR (30 min heat challenge; 15 µM G3a) [3] [°C] |
| --- | --- | --- | --- | --- |
| B1 | 50 | 8 | – | – |
| B2 | 30 | – | – | – |
| B3 | – | 8 | – | – |
| B4 | 50 | – | 7 | – |
| B5 | – | – | – | 3.1 |
